# Test results reported in paper PMC6096924, “Mechanism of activation of the BNLF2a immune evasion gene of Epstein-Barr virus by Zta”.
# B1: BNLF2a ZRE3 (dsDNA)
# DNA 1: CTTTCCATCTTGTGCCAATACACATTT
# DNA 2: AAATGTGTATTGGCACAAGATGGAAAG
# B2: BNLF2a ZRE5 (dsDNA)
# DNA 1: TAAGCTACTATGACTAACCTTTCTTTA
# DNA 2: TAAAGAAAGGTTAGTCATAGTAGCTTA
# B3: BNLF2a ZRE2 (dsDNA)
# DNA 1: CACCTGTTGTTGACACATTCTTTGCGC
# DNA 2: GCGCAAAGAATGTGTCAACAACAGGTG
# B4: BNLF2a ZRE1me (CpG-methylated) (dsDNA)
# DNA 1: ACACCTGTCCTCGCTCATCTTTCCACA
# DNA 2: TGTGGAAAGATGAGCGAGGACAGGTGT
# modifications: 5-methyl-C (printed meC) at C12 of strand 1 and C15 of strand 2
# B5: BNLF2a ZRE1 (dsDNA)
# DNA 1: ACACCTGTCCTCGCTCATCTTTCCACA
# DNA 2: TGTGGAAAGATGAGCGAGGACAGGTGT
# B6: BNLF2a ZRE4 (dsDNA)
# DNA 1: TCACCTTAACTGGCACACACTCCCTTA
# DNA 2: TAAGGGAGTGTGTGCCAGTTAAGGTGA
# Legend:
# Details in all cases: protein: recombinant; tags: His, GST (fusion); chain copies: 2; label: IR-800; blunt
# [1] = target: T1, His-GST-Zta (DNA binding and dimerization region) (Epstein-Barr virus, UniProt P03206 168-245); assay: EMSA
# T1 sequence (P03206 168-245): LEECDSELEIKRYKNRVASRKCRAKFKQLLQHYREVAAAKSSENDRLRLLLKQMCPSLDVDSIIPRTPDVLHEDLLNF
# [2] = target: T1, His-GST-Zta (DNA binding and …); assay: EMSA; highest binding of the five ZREs
# [3] = target: T1, His-GST-Zta (DNA binding and …); assay: EMSA; CpG methylation; binding increased vs unmethylated ZRE1 (P<=0.01)
Binder,binding result [1],further results
B1,binds,–
B2,binds,–
B3,–,binding result [2]: binds
B4,–,binding result [3]: binds
B5,binds,–
B6,binds,–
